What was measured:
[1] = molecular target: TβRII-SE/Fc (TβRII-Soluble Endogenous fused to the human IgG1 Fc domain) (human); assay: SPR; Biacore 3000, CM5 chip with anti-human Fc mixed with anti-mouse Fc antibodies; TβRII-SE/Fc or TβRII-Fc captured to 100–140 RU; TGF-β1, -β2 or -β3 injected at 0.4 to 30 nM, 50 μl/min, association 90 s, dissociation 300 s (900 s for slow rates); 0.1% surfactant; double referencing; 1:1 binding model; stoichiometry from Rmax and mass ratios
[2] = molecular target: TβRII-Fc (TβRII extracellular domain fused to human IgG1 Fc) (human) (UniProt P37173); assay: as above
Sequence of TβRII-Fc (TβRII extracellular domain fused to human IgG1 Fc) (human) (P37173 23-166): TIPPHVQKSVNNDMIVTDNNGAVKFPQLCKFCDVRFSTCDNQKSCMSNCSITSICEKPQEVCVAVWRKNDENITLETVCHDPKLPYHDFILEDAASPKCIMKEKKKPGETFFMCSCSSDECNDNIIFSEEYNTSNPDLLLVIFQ

| stoichiometry N (TGF-β dimer per bivalent Fc ligand) [1] | stoichiometry N (TGF-β dimer per bivalent Fc ligand) [2] | Substance |
| --- | --- | --- |
| 1 | 1 | TGF-β1 (ligand) |
| 1 | 1 | TGF-β2 (ligand) |
| 1 | – | TGF-β3 (ligand) |

Source: publication PMC8461249
